Experimental data published in patent US20120135923A1, “Use of Melanocortins to Treat Dyslipidemia” (IPSEN PHARMA, S.A.S., priority 2009, published 2012).
Each block holds one binder with its values, some of them ahead of it. Bridge positions count the residues as written; N and C are the ends. Square brackets hold non-standard residues; d marks the D form. Ends that are not written are not given here. Bip = N[C@@H](Cc1ccc(-c2ccccc2)cc1)C(=O)O; 1Nal = N[C@@H](Cc1cccc2ccccc12)C(=O)O; 2Nal = N[C@@H](Cc1ccc2ccccc2c1)C(=O)O; d2Nal = N[C@H](Cc1ccc2ccccc2c1)C(=O)O; Bta = N[C@@H](Cc1csc2ccccc12)C(=O)O; hArg = N=C(N)NCCCC[C@H](N)C(=O)O; Nle = CCCC[C@H](N)C(=O)O; Ahx = NCCCCCC(=O)O; GABA = NCCCC(=O)O; βAla = NCCC(=O)O

Tests used:
hMC1-R (human) [1] = biological target: hMC1-R (human) (UniProt Q01726); test: ratio Ki hMC1-R / Ki hMC4-R, same assay
Chain of hMC1-R (human) (Q01726 whole entry): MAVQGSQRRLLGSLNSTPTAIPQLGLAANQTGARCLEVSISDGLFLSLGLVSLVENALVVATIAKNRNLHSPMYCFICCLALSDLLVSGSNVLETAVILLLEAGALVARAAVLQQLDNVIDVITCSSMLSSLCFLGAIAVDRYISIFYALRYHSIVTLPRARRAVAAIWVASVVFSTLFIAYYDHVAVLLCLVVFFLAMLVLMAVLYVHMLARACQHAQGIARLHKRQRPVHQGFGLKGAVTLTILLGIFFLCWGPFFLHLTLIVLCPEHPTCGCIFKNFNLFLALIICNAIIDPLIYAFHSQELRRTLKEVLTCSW

hMC1-R (human) [2] = biological target: hMC1-R (human) (UniProt Q01726); test: competition with [125I]-NDP-α-MSH, CHO-K1 membranes
hMC3-R (human) [3] = biological target: hMC3-R (human) (UniProt P41968); test: as above
Chain of hMC3-R (human) (P41968 whole entry): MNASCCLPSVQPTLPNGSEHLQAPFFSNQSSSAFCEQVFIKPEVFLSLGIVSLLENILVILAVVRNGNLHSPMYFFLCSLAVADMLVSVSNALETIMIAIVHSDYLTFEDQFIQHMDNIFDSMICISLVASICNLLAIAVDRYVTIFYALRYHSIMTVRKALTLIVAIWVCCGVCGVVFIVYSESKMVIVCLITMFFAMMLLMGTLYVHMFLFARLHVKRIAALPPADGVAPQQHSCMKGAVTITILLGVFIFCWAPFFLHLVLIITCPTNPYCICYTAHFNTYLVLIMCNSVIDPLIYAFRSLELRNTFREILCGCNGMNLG

hMC4-R (human) [4] = biological target: hMC4-R (human) (UniProt P32245); test: as above
Chain of hMC4-R (human) (P32245 whole entry): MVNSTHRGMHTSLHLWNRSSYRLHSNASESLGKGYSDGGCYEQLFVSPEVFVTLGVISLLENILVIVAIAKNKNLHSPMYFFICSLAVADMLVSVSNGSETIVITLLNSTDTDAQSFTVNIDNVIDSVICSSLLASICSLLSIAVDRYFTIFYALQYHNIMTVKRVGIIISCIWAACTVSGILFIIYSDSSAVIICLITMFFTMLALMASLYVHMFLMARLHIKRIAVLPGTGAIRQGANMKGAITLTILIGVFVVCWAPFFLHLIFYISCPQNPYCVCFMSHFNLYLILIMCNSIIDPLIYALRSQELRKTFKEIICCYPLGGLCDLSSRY

hMC5-R (human) [5] = biological target: hMC5-R (human) (UniProt P33032); test: as above
Chain of hMC5-R (human) (P33032 whole entry): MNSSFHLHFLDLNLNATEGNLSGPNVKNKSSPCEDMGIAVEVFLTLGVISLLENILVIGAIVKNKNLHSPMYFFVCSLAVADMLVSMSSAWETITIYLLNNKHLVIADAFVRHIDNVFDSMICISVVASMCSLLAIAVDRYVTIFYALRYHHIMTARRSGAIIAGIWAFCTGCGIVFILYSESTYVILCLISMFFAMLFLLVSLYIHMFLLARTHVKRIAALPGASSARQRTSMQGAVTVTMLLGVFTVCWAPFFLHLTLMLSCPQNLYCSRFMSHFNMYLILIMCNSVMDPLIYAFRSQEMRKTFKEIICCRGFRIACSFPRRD

[6] = biological target: human melanocortin receptor subtype 1 (hMC1-R) (human), Q01726; test: [125I]-NDP-α-MSH competition, membranes
Chain of human melanocortin receptor subtype 1 (hMC1-R) (human), Q01726 (Q01726 whole entry): as the sequence (Q01726 whole entry) above

[7] = biological target: human melanocortin receptor subtype 3 (hMC3-R) (human), P41968; test: [125I]-NDP-α-MSH competition, membranes
Chain of human melanocortin receptor subtype 3 (hMC3-R) (human), P41968 (P41968 whole entry): as the sequence (P41968 whole entry) above

[8] = biological target: human melanocortin receptor subtype 4 (hMC4-R) (human), P32245; test: [125I]-NDP-α-MSH competition, membranes
Chain of human melanocortin receptor subtype 4 (hMC4-R) (human), P32245 (P32245 whole entry): as the sequence (P32245 whole entry) above

[9] = biological target: human melanocortin receptor subtype 5 (hMC5-R) (human), P33032; test: [125I]-NDP-α-MSH competition, membranes
Chain of human melanocortin receptor subtype 5 (hMC5-R) (human), P33032 (P33032 whole entry): as the sequence (P33032 whole entry) above

hMC1-R (human) [10] = biological target: hMC1-R (human) (UniProt Q01726); test: cell-based or functional assay
hMC3-R (human) [11] = biological target: hMC3-R (human) (UniProt P41968); test: cell-based or functional assay
hMC4-R (human) [12] = biological target: hMC4-R (human) (UniProt P32245); test: cell-based or functional assay
hMC5-R (human) [13] = biological target: hMC5-R (human) (UniProt P33032); test: cell-based or functional assay

B1: Ac-Nle-c(Cys-D-Ala-His-D-2-Nal-Arg-2-Nal-Cys)-NH2 (peptide)
peptide: Ac-[Nle]C[dA]H[d2Nal]R[2Nal]C-NH2
modifications: disulfide 2-8
SMILES: CCCC[C@H](NC(C)=O)C(=O)N[C@H]1CSSC[C@@H](C(N)=O)NC(=O)[C@H](Cc2ccc3ccccc3c2)NC(=O)[C@H](CCCNC(=N)N)NC(=O)[C@@H](Cc2ccc3ccccc3c2)NC(=O)[C@H](Cc2c[nH]cn2)NC(=O)[C@@H](C)NC1=O
- Ki hMC1-R/MC4-R (hMC1-R (human) [1]): 12.8
- Ki (hMC1-R (human) [2]): 32.5 nM
- Ki (hMC3-R (human) [3]): 5.85 nM
- Ki (hMC4-R (human) [4]): 2.53 nM
- Ki (hMC5-R (human) [5]): 94.6 nM

B3: Ac-Nle-c(Cys-D-Ala-His-D-Phe-Arg-Trp-D-Ala-Cys)-NH2 (peptide)
peptide: Ac-[Nle]C[dA]H[dF]RW[dA]C-NH2
modifications: disulfide 2-9
SMILES: CCCC[C@H](NC(C)=O)C(=O)N[C@H]1CSSC[C@@H](C(N)=O)NC(=O)[C@@H](C)NC(=O)[C@H](Cc2c[nH]c3ccccc23)NC(=O)[C@H](CCCNC(=N)N)NC(=O)[C@@H](Cc2ccccc2)NC(=O)[C@H](Cc2c[nH]cn2)NC(=O)[C@@H](C)NC1=O
- Ki hMC1-R/MC4-R (hMC1-R (human) [1]): 0.08
- Ki (hMC1-R (human) [2]): 3.93 nM
- Ki (hMC3-R (human) [3]): 876 nM
- Ki (hMC4-R (human) [4]): 48 nM
- Ki (hMC5-R (human) [5]): 4940 nM

Binder: Ac-[Nle]CH[d2Nal]RW[GABA]C-NH2 (disulfide 2-8) [Ac-Nle-c(Cys-His-D-2-Nal-Arg-Trp-Gaba-Cys)-NH2]
- cAMP EC50 (hMC1-R (human) [10]): 0.231 nM
- cAMP Kb (hMC3-R (human) [11]): 18.4 nM
- cAMP Kb (hMC4-R (human) [12]): 0.782 nM
- cAMP EC50 (hMC5-R (human) [13]): 0.153 nM
- Ki hMC1-R/MC4-R (hMC1-R (human) [1]): 1.05
- Ki (hMC1-R (human) [2]): 0.393 nM
- Ki (hMC3-R (human) [3]): 1.86 nM
- Ki (hMC4-R (human) [4]): 0.375 nM
- Ki (hMC5-R (human) [5]): 1.11 nM

B4: Ac-c(Cys-Glu-His-D-2-Nal-Arg-2-Nal-Ala-Cys)-Pro-Pro-Lys-Asp-NH2 (peptide)
peptide: Ac-CEH[d2Nal]R[2Nal]ACPPKD-NH2
modifications: disulfide 1-8
SMILES: CC(=O)N[C@H]1CSSC[C@@H](C(=O)N2CCC[C@H]2C(=O)N2CCC[C@H]2C(=O)N[C@@H](CCCCN)C(=O)N[C@@H](CC(=O)O)C(N)=O)NC(=O)[C@H](C)NC(=O)[C@H](Cc2ccc3ccccc3c2)NC(=O)[C@H](CCCNC(=N)N)NC(=O)[C@@H](Cc2ccc3ccccc3c2)NC(=O)[C@H](Cc2c[nH]cn2)NC(=O)[C@H](CCC(=O)O)NC1=O
- Ki [6]: 87.8 nM
- Ki [7]: 9.08 nM
- Ki [8]: 1.2 nM
- Ki [9]: 359 nM

Binder: Ac-[Nle]CH[d2Nal]RW[Ahx]C-NH2 (disulfide 2-8) [Ac-Nle-c(Cys-His-D-2-Nal-Arg-Trp-Ahx-Cys)-NH2]
- cAMP EC50 (hMC1-R (human) [10]): 0.581 nM
- cAMP Kb (hMC3-R (human) [11]): 10.8 nM
- cAMP Kb (hMC4-R (human) [12]): 0.967 nM
- cAMP EC50 (hMC5-R (human) [13]): 0.126 nM
- Ki hMC1-R/MC4-R (hMC1-R (human) [1]): 0.33
- Ki (hMC1-R (human) [2]): 0.333 nM
- Ki (hMC3-R (human) [3]): 2.91 nM
- Ki (hMC4-R (human) [4]): 0.998 nM
- Ki (hMC5-R (human) [5]): 0.366 nM

B5: Ac-c(Cys-Glu-His-D-2-Nal-Arg-1-Nal-Ala-Cys)-Pro-Pro-Lys-Asp-NH2 (peptide)
peptide: Ac-CEH[d2Nal]R[1Nal]ACPPKD-NH2
modifications: disulfide 1-8
SMILES: CC(=O)N[C@H]1CSSC[C@@H](C(=O)N2CCC[C@H]2C(=O)N2CCC[C@H]2C(=O)N[C@@H](CCCCN)C(=O)N[C@@H](CC(=O)O)C(N)=O)NC(=O)[C@H](C)NC(=O)[C@H](Cc2cccc3ccccc23)NC(=O)[C@H](CCCNC(=N)N)NC(=O)[C@@H](Cc2ccc3ccccc3c2)NC(=O)[C@H](Cc2c[nH]cn2)NC(=O)[C@H](CCC(=O)O)NC1=O
- Ki [6]: 124 nM
- Ki [7]: 17.8 nM
- Ki [8]: 1.11 nM
- Ki [9]: 348 nM

Second part, the binder after the results:

- Ki [6]: 163 nM
- Ki [7]: 23 nM
- Ki [8]: 0.586 nM
- Ki [9]: 844 nM
B2: Ac-c(Cys-Glu-His-D-2-Nal-Arg-Bal-Ala-Cys)-Pro-Pro-Lys-Asp-NH2 (peptide)
peptide: Ac-CEH[d2Nal]R[Bta]ACPPKD-NH2
modifications: disulfide 1-8
SMILES: CC(=O)N[C@H]1CSSC[C@@H](C(=O)N2CCC[C@H]2C(=O)N2CCC[C@H]2C(=O)N[C@@H](CCCCN)C(=O)N[C@@H](CC(=O)O)C(N)=O)NC(=O)[C@H](C)NC(=O)[C@H](Cc2csc3ccccc23)NC(=O)[C@H](CCCNC(=N)N)NC(=O)[C@@H](Cc2ccc3ccccc3c2)NC(=O)[C@H](Cc2c[nH]cn2)NC(=O)[C@H](CCC(=O)O)NC1=O

- Ki [6]: 20.9 nM
- Ki [7]: 69.7 nM
- Ki [8]: 8.32 nM
- Ki [9]: 50 nM
Binder: GGC[dA]H[dF]RWC-NH2 (disulfide 3-9; also: hydantoin ring from C(O) with Gly1-Gly2) [Hydantoin(C(O)-(Gly-Gly))-c(Cys-D-Ala-His-D-Phe-Arg-Trp-Cys)-NH2]

- Ki hMC1-R/MC4-R (hMC1-R (human) [1]): 0
- Ki (hMC1-R (human) [2]): 0.128 nM
- Ki (hMC3-R (human) [3]): 85.6 nM
- Ki (hMC4-R (human) [4]): 36.9 nM
- Ki (hMC5-R (human) [5]): 38 nM
Binder: [dF]CH[d(Et)Tyr][hArg][Bip][βAla][dC]T-NH2 (disulfide 2-8) [D-Phe-c(Cys-His-D-(Et)Tyr-hArg-Bip-β-Ala-D-Cys)-Thr-NH2]
